Two molecules from PMC12418378, “Intrinsically disordered region of Clr4/Suv39 regulates its enzymatic activity and ensures heterochromatin spreading” (Nucleic Acids Research, 2025) can be followed below.

Assay in all cases: pull-down; GST-fused Clr4 (0.2 nmol) on Glutathione Magnetic Agarose Beads, 0.2 nmol MBP-fused Clr4 in 200 μl of 10 mM Tris-HCl pH 7.5, 150 mM NaCl, 0.1 mM EDTA, 0.1% Triton X-100, 4°C, 2 h; SDS-PAGE and CBB staining; also at 0 mM NaCl and with pericentromeric RNA added
Holding throughout (conditions): both partners purified

Test [1] deals with T1, MBP-fused catalytic domain of Clr4 (MBP-Clr4-C, amino acids 192-490) (S. pombe, UniProt O60016 192-490).
T1 construct: Clr4, S. pombe, C-terminal catalytic domain, amino acids 192-490; cloned into pMALc2; source: E. coli BL21 (DE3), purified (Amylose Resin, dialysed)

The target in the next test is T2, MBP-Clr4-C 472–475A (S. pombe, UniProt O60016 192-490, 472–475A).
T2 construct: source: E. coli BL21 (DE3), purified (Amylose Resin, dialysed)

In a further test the target is T3, MBP-Clr4-C 472–475E (S. pombe, UniProt O60016 192-490, 472–475E).
T3 construct: source: E. coli BL21 (DE3), purified (Amylose Resin, dialysed)
T3 sequence (O60016 other isoform, or with tags, fused parts or gaps 472–475E | 472–475E): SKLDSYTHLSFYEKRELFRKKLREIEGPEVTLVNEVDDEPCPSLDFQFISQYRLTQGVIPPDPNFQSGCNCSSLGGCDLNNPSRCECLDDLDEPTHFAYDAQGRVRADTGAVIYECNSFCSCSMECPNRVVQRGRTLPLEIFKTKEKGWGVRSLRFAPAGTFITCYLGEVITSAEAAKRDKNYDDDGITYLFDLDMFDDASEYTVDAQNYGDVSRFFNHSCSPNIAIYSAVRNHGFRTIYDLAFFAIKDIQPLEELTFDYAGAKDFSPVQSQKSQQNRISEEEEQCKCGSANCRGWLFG

T1 sequence (O60016 192-490): as the sequence (O60016 other isoform, or with tags, fused parts or gaps 472–475E | 472–475E) above, with E281K, E282L, E283R, E284R counted along it
T2 sequence (O60016 other isoform, or with tags, fused parts or gaps 472–475A | 472–475A): as the sequence (O60016 other isoform, or with tags, fused parts or gaps 472–475E | 472–475E) above, with E281A, E282A, E283A, E284A counted along it

B1: GST-Clr4-N3 (domain or fragment, S. pombe, UniProt O60016 1-126, looked up)
chain: MSPKQEEYEVERIVDEKLDRNGAVKLYRIRWLNYSSRSDTWEPPENLSGCSAVLAEWKRRKRRLKGSNSDSDSPHHASNPHPNSRQKHQHQTSKSVPRSQRFSRELNVKKENKKVFSSQTTKRQSR
notes: Clr4, S. pombe, residues 1-126; source: E. coli BL21 (DE3), purified (Glutathione Sepharose 4B, anion exchange SOURCE 15Q)
For B1, the binding result in test [1] was “binds”.

B2: GST-fused Clr4 N-terminus (GST-Clr4-N, amino acids 1-191) (domain or fragment, S. pombe, UniProt O60016 1-191, looked up)
chain: MSPKQEEYEVERIVDEKLDRNGAVKLYRIRWLNYSSRSDTWEPPENLSGCSAVLAEWKRRKRRLKGSNSDSDSPHHASNPHPNSRQKHQHQTSKSVPRSQRFSRELNVKKENKKVFSSQTTKRQSRKQSTALTTNDTSIILDDSLHTNSKKLGKTRNEVKEESQKRELVSNSIKEATSPKTSSILTKPRNP
notes: Clr4, S. pombe, N-terminus comprising the CD and IDR, amino acids 1-191; cloned into pGEX6P-3; also called wild-type GST-Clr4-N; GST-Clr4-N2 (label worked out); source: E. coli BL21 (DE3), purified (Glutathione Sepharose 4B, anion exchange SOURCE 15Q)
With B2, the binding result (with MBP-Clr4-C 472–475A; in the test with MBP-Clr4-C 472–475E; in test [1]) was “binds” in each case.
